{"source": "paper PMC11134719", "key": {"[1]": {"target": "Toll-like receptor 4 (TLR4) (human (endogenous in HUVECs and HMEC-1)) (UniProt O00206)", "sequence (O00206 24-839)": "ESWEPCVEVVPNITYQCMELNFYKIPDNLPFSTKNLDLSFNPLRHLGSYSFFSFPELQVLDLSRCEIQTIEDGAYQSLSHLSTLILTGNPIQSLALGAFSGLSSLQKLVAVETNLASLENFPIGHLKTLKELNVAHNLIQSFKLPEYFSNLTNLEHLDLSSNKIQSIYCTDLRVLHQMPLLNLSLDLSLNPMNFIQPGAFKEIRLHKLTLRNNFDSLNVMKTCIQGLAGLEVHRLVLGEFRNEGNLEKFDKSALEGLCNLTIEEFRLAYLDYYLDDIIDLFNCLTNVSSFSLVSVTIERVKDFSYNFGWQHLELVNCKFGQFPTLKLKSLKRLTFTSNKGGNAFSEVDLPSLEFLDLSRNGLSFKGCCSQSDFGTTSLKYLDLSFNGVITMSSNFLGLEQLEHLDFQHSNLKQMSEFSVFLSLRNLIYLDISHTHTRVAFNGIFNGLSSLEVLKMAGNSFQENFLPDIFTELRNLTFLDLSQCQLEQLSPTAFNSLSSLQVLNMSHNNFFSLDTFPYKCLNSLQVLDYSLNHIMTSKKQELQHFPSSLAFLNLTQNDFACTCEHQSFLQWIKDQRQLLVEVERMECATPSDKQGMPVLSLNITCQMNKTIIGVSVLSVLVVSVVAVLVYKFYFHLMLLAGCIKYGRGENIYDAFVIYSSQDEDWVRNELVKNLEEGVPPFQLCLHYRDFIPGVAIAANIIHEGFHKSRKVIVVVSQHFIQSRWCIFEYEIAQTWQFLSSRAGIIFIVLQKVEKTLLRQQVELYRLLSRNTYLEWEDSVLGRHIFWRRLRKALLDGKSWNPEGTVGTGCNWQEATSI"}, "[2]": {"target": "angiotensin-converting enzyme 2 (ACE2) (human (endogenous in HUVECs and HMEC-1)) (UniProt Q9BYF1)", "sequence (Q9BYF1 18-805)": "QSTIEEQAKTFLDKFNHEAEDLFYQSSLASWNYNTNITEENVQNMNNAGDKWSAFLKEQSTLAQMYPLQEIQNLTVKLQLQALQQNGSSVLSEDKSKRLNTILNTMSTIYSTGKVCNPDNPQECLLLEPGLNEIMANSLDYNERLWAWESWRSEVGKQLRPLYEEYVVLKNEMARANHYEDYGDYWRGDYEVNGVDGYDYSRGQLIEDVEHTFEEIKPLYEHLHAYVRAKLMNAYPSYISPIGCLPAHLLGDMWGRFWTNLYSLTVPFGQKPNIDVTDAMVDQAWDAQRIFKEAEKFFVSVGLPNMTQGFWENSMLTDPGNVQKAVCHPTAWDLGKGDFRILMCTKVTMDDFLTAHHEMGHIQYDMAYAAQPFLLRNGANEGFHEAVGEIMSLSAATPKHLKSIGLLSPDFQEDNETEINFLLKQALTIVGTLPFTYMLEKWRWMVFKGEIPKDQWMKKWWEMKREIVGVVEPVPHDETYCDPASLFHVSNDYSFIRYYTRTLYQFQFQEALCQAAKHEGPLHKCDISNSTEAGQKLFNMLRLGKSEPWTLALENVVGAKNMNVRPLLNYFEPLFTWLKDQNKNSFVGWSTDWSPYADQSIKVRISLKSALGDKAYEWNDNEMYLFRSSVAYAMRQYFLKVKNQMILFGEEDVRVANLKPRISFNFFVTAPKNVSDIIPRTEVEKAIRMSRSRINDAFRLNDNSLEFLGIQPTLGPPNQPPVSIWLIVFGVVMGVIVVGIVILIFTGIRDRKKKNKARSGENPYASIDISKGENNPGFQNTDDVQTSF"}}}
{"substance": "2019-nCoV S1 Protein (SARS-CoV-2 Spike protein) (domain or fragment)", "values": [{"measurement": "TLR4 surface protein level by Western blot, fold over nontreated endothelial cells, 0.5 µg/mL S protein for 48 h", "setting": "[1]", "value": 1.7, "unit": "fold"}, {"measurement": "TLR4 surface protein level by immunostaining, fold over nontreated endothelial cells, 0.5 µg/mL S protein for 48 h", "setting": "[1]", "value": 1.4, "unit": "fold"}, {"measurement": "decrease of the ACE2 surface protein level (Western blot of the cell surface fraction), 0.5 µg/mL S protein for 48 h", "setting": "[2]", "value": 60, "unit": "%"}]}
